B1: Hammerhead Ribozyme (parent)
chain: ACCGGAUGUGCUUUCCGGUCUGAUGAGUCCGUGAGGACGAAACAG

The variants in the data set derive from B1. The experiment in a line: self-cleavage, relative activity (ratio to wild type); higher = more cleavage; co-transcriptional.
Turning to ACCGGAUGUGCUGUCCGGUCUGAUGAGUCCGUGAGGACGAAACAC [U13G G45C], the self-cleavage was 0.596. With ACCGGACGUGCUUUCCGGUCUGAGGAGUCCGUGAGGACGAAACAG [U7C U24G] the figure was 0.742; with ACGGGAUGUGCUUUCCGGUCUGAUGAGUCCGUGAGGACGAAACCG [C3G A44C], 0.374; with ACCGGAUGUGCUUUCCGGUCUGAUGAGUCCGGGAUGACGAAACAG [U32G G35U], 0.603. The value for ACCGUAUGUGCUUUCCGGUCUGAUGAGUCCGUGAGGACGAAACUG [G5U A44U] was 0.391; that for UCCGGAUGUGCUUGCCGGUCUGAUGAGUCCGUGAGGACGAAACAG [A1U U14G] was 0.692; that for ACCUGAUGUUCUUUCCGGUCUGAUGAGUCCGUGAGGACGAAACAG [G4U G10U] was 0.558.

Turning to ACCGGAUGUGCUUUCCGGUCUGAUGAGUCCGUUAGGACGAAACGG [G33U A44G], the self-cleavage is 1.44. Take ACCGGCUGUGCUUUCCGGUCUGAGGAGUCCGUGAGGACGAAACAG [A6C U24G]: the self-cleavage was 0.511.

In the case of ACCGGAUGUGCUUUCCGGUCUAAUGACUCCGUGAGGACGAAACAG [G22A G27C], the self-cleavage came to 0.39. As for ACCAGAAGUGCUUUCCGGUCUGAUGAGUCCGUGAGGACGAAACAG [G4A U7A], the self-cleavage was 0.538. The value for ACCGGAUGUGCUUUCCGGUCUGAUGAUUCCGUGAGGACGUAACAG [G27U A40U] was 0.402; that for AGCGGAUGUGCUGUCCGGUCUGAUGAGUCCGUGAGGACGAAACAG [C2G U13G] was 0.332. The value for ACCGGAUAUGCUUUCCGGUCUGAUGAGUCCGUGAGGUCGAAACAG [G8A A37U] was 0.731.

Turning to ACGGGGUGUGCUUUCCGGUCUGAUGAGUCCGUGAGGACGAAACAG [C3G A6G], the self-cleavage was found to be 0.294. On to ACCGGAUGUGGUUUCCGGUCUGAUGAGUCCGUGUGGACGAAACAG [C11G A34U], for which the self-cleavage is 1.07. The value for ACCGGAUGUGCUUUCCGGUCUGAUGAGUCCGUGACGACGAAACAU [G35C G45U] was 0.498; that for ACCGGACGUGCUUUCCGGUCUGAUGAGUCCGUGAGGAUGAAACAG [U7C C38U] was 0.929. With AUCGGAUGUGCUUUCCGGUCUGAUGAGUCCGUGAGGACGAAACCG [C2U A44C] the figure was 0.664; with ACCGGAUGUGCCUUCCGGUAUGAUGAGUCCGUGAGGACGAAACAG [U12C C20A], 0.449; with ACCGGAUGUGCUUUCCGGUCUCACGAGUCCGUGAGGACGAAACAG [G22C U24C], 0.348.

As for ACCGGAUGUGCUUACCGGUCUGAUGAGUCCGUGAGGACAAAACAG [U14A G39A], the self-cleavage was 0.359. ACCGGAUGUACUUUCCGGUCUGAUGAGUCCGUGCGGACGAAACAG [G10A A34C]: the self-cleavage is 1.2. With ACCGGAUGUGCUUUACGGUCUGAUGAGUCCGUUAGGACGAAACAG [C15A G33U] the figure was 0.893; with ACCGGAUGUGCUUUCCGGUCUGAUGAGUACGUGAGGACGAAACAG [C29A], 0.708; with ACCGGAUGUGAUUUCCGGUCUGGUGAGUCCGUGAGGACGAAACAG [C11A A23G], 0.371.

For ACCGGAUGUGAUUUCCGGUCUGAUGAGUCCGAGAGGACGAAACAG [C11A U32A], the self-cleavage turned out to be 1.4. The value for ACCUGAUGUGCUUUCCGGUCUGCUGAGUCCGUGAGGACGAAACAG [G4U A23C] was 0.257; that for ACCGGAUGUGCUUUCCGGUCUGAUGAGUCCGUGACGACGAGACAG [G35C A41G] was 0.329.

Turning to ACCGGACGUGCUUUCCGGUCUGAUUAGUCCGUGAGGACGAAACAG [U7C G25U], the self-cleavage was determined as 0.312.

Consider ACCGGAUGUGCUUUCGAGUCUGAUGAGUCCGUGAGGACGAAACAG [C16G G17A], for which the self-cleavage was 0.532. The value for ACCGGAUCUGCUUUCCGGUCUGAUGAGUCCGUGAGGAUGAAACAG [G8C C38U] was 0.979; that for ACCGGAUGUGCUUUCCGGUCUGAUGAGUCCGCGAGGACGAACCAG [U32C A42C] was 0.316; that for ACCGGAGGUGCAUUCCGGUCUGAUGAGUCCGUGAGGACGAAACAG [U7G U12A] was 1.24. The value for ACCGGAUGUGCUUUGCGGUCUGAUGAGUCCGUGAGGAUGAAACAG [C15G C38U] was 0.633. Take ACCGGGUGUGCUUUCCGGUCUGAUUAGUCCGUGAGGACGAAACAG [A6G G25U]: the self-cleavage stood at 0.194.

With ACCGGAUGUGCUUUUCGGUCUGAUGAGUACGUGAGGACGAAACAG [C15U C29A], the self-cleavage was determined as 0.686. The value for AUCGGACGUGCUUUCCGGUCUGAUGAGUCCGUGAGGACGAAACAG [C2U U7C] was 0.541. The value for ACCGGAUGUGCUUUCCGGUCUGACGAGUCCGUGAGGACGAAACCG [U24C A44C] was 0.503. Turning to ACCGGAUGUGCUUUCCGGUCUGAUAAGUCCGUGAAGACGAAACAG [G25A G35A], the self-cleavage came out at 0.315. Turning to AUCGGAUGUGCUUUCCGGUCGGAUGAGUCCGUGAGGACGAAACAG [C2U U21G], the self-cleavage turned out to be 0.742. As for ACCGGAUGUGCUUUCCGGUCUGAUGAGUCCGUGAGGACUAAACAG [G39U], the self-cleavage came to 0.363. The value for ACCGGAUGUGCUUUCCAGUCUGAUGAGUCCGUGAGGACGAAAAAG [G17A C43A] was 0.372; that for ACCGGCUGUGCUUUCCAGUCUGAUGAGUCCGUGAGGACGAAACAG [A6C G17A] was 0.348; that for ACCGGAUGUGCAUUCCGGUCUCAUGAGUCCGUGAGGACGAAACAG [U12A G22C] was 0.236. For ACCGGAUAUGCUUUCCGGUCUGAUGAGUCCGUGAGGACGAUACAG [G8A A41U], the self-cleavage was 0.323. The value for ACCGGAUGUGCUUUCGGGUCUGAUUAGUCCGUGAGGACGAAACAG [C16G G25U] was 0.384.

For the variant ACCGGAUGUGCUUUCCGGUCUGAUGGGUCCGUGAGGCCGAAACAG [A26G A37C], the self-cleavage was determined as 0.252. Turning to ACCCGAUGUGCUUUCCGGUCUGAUGAGCCCGUGAGGACGAAACAG [G4C U28C], the self-cleavage stood at 0.331.

As for ACCGGAUGUGCUUUCCGGUCUGAUGAGUCCGUGAGGACGAAAGUG [C43G A44U], the self-cleavage was 0.359. The value for ACCGUAUGUGCUUUCCGGUCUGAUGAGUCCGUGAGGACGAAGCAG [G5U A42G] was 0.352.

As for ACCGGAUGUGCUUUCCGGUCUGAUAAGUCCGUGAGGACGAAACGG [G25A A44G], the self-cleavage amounted to 0.64. With ACCGGAUGUGCUUUCCGGUCUGAUGAGUCUGUGAGGACGAACCAG [C30U A42C] the figure was 0.314; with ACCGGAUGUGCUUUCAGGUCUGAUGAGUCCGUGAAGACGAAACAG [C16A G35A], 0.727; with ACCGGAUGUGCUUUCCGGUCUGAUUAGUCCGUGAGGAUGAAACAG [G25U C38U], 0.37. The value for ACCGGAUGUGCUUUCCGGUCUGAUGAGUCCGUGAGGACGAGACAA [A41G G45A] was 0.25; that for AACGGAUGUGCUUUCCGGUCUGAUGAGUCCGUGAGGCCGAAACAG [C2A A37C] was 0.376.

The record behind these values is the RNAGym collection of RNA variant scans (doi:10.7554/elife.80360).
